± gives the standard deviation of the averaged measurements.

The series relates to VchCAST RNA-guided transposition machinery (E. coli BL21(DE3) host, lacZ target). The series is described as follows: relative integration efficiency (T-RL orientation) vs wild-type transposon end (log2 (normalized fold change)); transposon end mutated: right end (5 bp flank + 75 bp right end); higher = more efficient transposition. The method in brief: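 In E. coli BL21(DE3), a T7-driven effector plasmid was paired with a pUC57 mini-transposon donor containing 1549 left-end or 1849 right-end barcoded transposon variants. Cells grew on plates with 0.1 mM IPTG at 37°C for 18 h. Relative integration efficiency was derived from Illumina reads of genomic integration junctions against input plasmids, as a log-transformed output/input barcode fold change normalised to reference barcodes.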
For “ACATTTGTTGATACACCCATAAATTGATAATTACAACCATAAGTTGATATTTTTCACAACCATAAGTTGATATTTTCTCTGATCATAGTCAGACCAACATTGCTACGACCCGTATTCGCACCGACAC”, the “relative integration efficiency (log2)” value was -0.543 ± 0.19.
With “ACATTGGTTGATACAACCATAAAATGATAATTACACCCATAAATTCATAATTATCACACCCAATTTAACTATAACGCTCTGATCATAGTCAGACCAACATTGCTACGACCCGTATTCGCACCGACAC” the figure was -6.39 ± 0.064; with “ACATTTGTTGATACACCCATAAATTGATATTGCCACCCATAAATTGATATTGCTCACACCCATAAATTGATATTGCCTCTGATCATAGTCAGACCAACATTGCTACGACCCGTATTCGCACCGACAC”, -0.939 ± 0.095; with “ACATTTGTTCATACAACCATAAAACGATAATTACACCCATAAATTGATCATTATCACACCCAATTTAACTATAACGCTCTGATCATAGTCAGACCAACATTGCTACGACCCGTATTCGCACCGACAC”, -2.19 ± 0.3.
As to “ACATTAGTGGATACAACCATAAAATGATAATTACACCCATAAATTCATCATTATCACACCCAATTTAACTATAACGCTCTGATCATAGTCAGACCAACATTGCTACGACCCGTATTCGCACCGACAC”, the “relative integration efficiency (log2)” value is -7.21 ± 0.51.
With “ACATTTGTTGATACAACCAATAAAAGATTAATACCCCCATTAATTGATAATTGTGACACCGAATTTAACTATAACGCTCTGATCATAGTCAGACCAACATTGCTACGACCCGTATTCGCACCGACAC”, the “relative integration efficiency (log2)” value was -5.12 ± 0.085.
“ACATTTGTTGATACAACCATAAAGTGATATTTACAACCATAAAATGATAATTATCACAACCATAAAATGATAATTACTCTGATCATAGTCAGACCAACATTGCTACGACCCGTATTCGCACCGACAC”: the “relative integration efficiency (log2)” value amounted to 0.174 ± 0.1.
The result for “ACATTTGTTGATACAACCATAAGTTGATATTTTCAACCATAAGTTGATATTTTTCACAACCATAAAATGATAATTACTCTGATCATAGTCAGACCAACATTGCTACGACCCGTATTCGCACCGACAC” reads 0.228 ± 0.008; that for “ACATTTGTTCATACAACCATAAAACGATAATTACACCCATAAATTGATAATTATCACACCCAATTTAACTATAACGCTCTGATCATAGTCAGACCAACATTGCTACGACCCGTATTCGCACCGACAC”, -0.611 ± 0.28.
Turning to “ACATTTGTTGATACACCCATAAATTGATAATTACAACCATAAGTTGATATTTTTCACACCCATAAATTGATAATTACTCTGATCATAGTCAGACCAACATTGCTACGACCCGTATTCGCACCGACAC”, the “relative integration efficiency (log2)” value is -0.622 ± 0.16.
The result for “ACATTGGTTCATACAACCATAAAATGATAATTACACCCATAAATTCATAATTATCACACCCAATTTAACTATAACGCTCTGATCATAGTCAGACCAACATTGCTACGACCCGTATTCGCACCGACAC” reads -6.669 ± 0.029; that for “ACATTTGTTGATACAACCATAAAATGATAATTCCACCCCTAAATTGATAATTATCACACCCAATTTAACTATAACGCTCTGATCATAGTCAGACCAACATTGCTACGACCCGTATTCGCACCGACAC”, -3.1 ± 0.3.
With “ACATTTGTTGATACAACCATAAAATGATAATTACCAAACGCCCGGTCGCCGGCGACACAAACGCCCGGTCGCGGTAAGAGGATCATAGTCAGACCAACATTGCTACGACCCGTATTCGCACCGACAC” the figure was -1.94 ± 0.27; with “ACATTTGTTGATACAACCATAAAGTGATATTTACACCCATAAATTGATATTGCTCACACCCATAAATTGATAATTACTCTGATCATAGTCAGACCAACATTGCTACGACCCGTATTCGCACCGACAC”, -0.232 ± 0.12; with “ACATTTCTTGATACAACCATAAAATGATAATTACACCCATAAATGGATAATTATCACACCCAATTTAACTATAACGCTCTGATCATAGTCAGACCAACATTGCTACGACCCGTATTCGCACCGACAC”, -2 ± 0.23.
Take “ACATTTGTTGATACCACCATAAAATGATAATTACACCCCTACATTGATAATTATCACACCCAATTTAACTATAACGCTCTGATCATAGTCAGACCAACATTGCTACGACCCGTATTCGCACCGACAC”: the “relative integration efficiency (log2)” value is -3.75 ± 0.28.
For the sequence “ACATTTGTTGATACAACCATAAAATGATAATTAATAATTATTTATAATCAGCAACCACCCATAAATTGATAATTATCACACCCATAAATTGATATTGCCTCTGATCATAGTCAGACCAACATTGCTA”, the “relative integration efficiency (log2)” value was -3.26 ± 0.25.
As for “ACATTTGTTGATACAACCATAAAATGATAATTACTCTGATCATAGTCAGACCAACATTGCTACGACCCGTATTCGCACCGACACACCCATAAATTGATAATTATCAGTGGGTATTTAACTATAACGC”, the “relative integration efficiency (log2)” value is -1.05 ± 0.17.
In the case of “ACATTTGTTGATACAAGCATAAAATGATAATTACACGCATAAATTGATAATTATCACACGCATAAATTGATATTGCCTCTGATCATAGTCAGACCAACATTGCTACGACCCGTATTCGCACCGACAC”, the “relative integration efficiency (log2)” value was -0.3912 ± 0.0011.
The result for “ACATTTGTTGATACAACCATAAAATGATAATTACACCCATAAATTGATAATTATCACACCCATAAATTGATATTGCCAGTGATCATAGTCAGACCAACATTGCTACGACCCGTATTCGCACCGACAC” reads -0.39 ± 0.14.
For “ACATTTGTTGATACAACCATAAAATGATAATTACACCCATAAATTGATAATTATCACACCCATAAATTGATATTGCCTCTGATAACTTCGTATAGTATACCTTATACGAAGTTATTCGCACCGACAC”, the “relative integration efficiency (log2)” value was -0.958 ± 0.26.
With “ACATTTGTTGATAGTACCATAAAATGATAATTACACCCATAAATTGATAATTATCACACCCATAAATTGATATTGCCTCTGATCATAGTCAGACCAACATTGCTACGACCCGTATTCGCACCGACAC” the figure was -0.367 ± 0.064.
“ACATTTGTTGATACAACCATAAAATGATAATTACACCCATAAATTGATAATTATCACCAAAATAAATTGATATTGCCTCTGATCATAGTCAGACCAACATTGCTACGACCCGTATTCGCACCGACAC”: the “relative integration efficiency (log2)” value is -0.112 ± 0.18.
For the sequence “ACATTAGTTCATACAACCATAAAATGATAATTACACCCATAAATGGATAATTATCACACCCAATTTAACTATAACGCTCTGATCATAGTCAGACCAACATTGCTACGACCCGTATTCGCACCGACAC”, the “relative integration efficiency (log2)” value was -6.74 ± 0.15.
With “ACATTTGTTGATACAACCATAAAATGATAATTAATAATTATTTATAATCAGCAACTTCACCCATAAATTGATAATTATCAACAAACGCCCGGTCGCGGTACTCTGATCATAGTCAGACCAACATTGC”, the “relative integration efficiency (log2)” value is -2.15 ± 0.52.
Take “ACATTTGTTGATACAACCATAAAAGGATCATTACACCCATAAATTGATAATTATCCCACCCAATTTAACTATAACGCTCTGATCATAGTCAGACCAACATTGCTACGACCCGTATTCGCACCGACAC”: the “relative integration efficiency (log2)” value is -1.69 ± 0.47.
With “ACATTTGTTGATACAACCATAAAATGATAATTACAACCATATATTGATATCTCTCACAACCATATATTGATATCTCCTCTGATCATAGTCAGACCAACATTGCTACGACCCGTATTCGCACCGACAC” the figure was -0.574 ± 0.17; with “ACATTTGTTGATACAACCATAAAATGATAATTACACCCAGCCCGGTCGCCGGCGACACAAACGCCCGGTCGCGGTAAGAGGATCATAGTCAGACCAACATTGCTACGACCCGTATTCGCACCGACAC”, -1.97 ± 0.16; with “ACATTTGTTGATACAACCAATAAATGATTATTACACCCATAAATTGATAATAATGACACCGAATTTAACTATAACGCTCTGATCATAGTCAGACCAACATTGCTACGACCCGTATTCGCACCGACAC”, 0.0749 ± 0.43.
As for “ACATTTGTTGATACAACCATTAAATGATAATTCCACCCATCAATTGATAATTATCACACCCAATTTAACTATAACGCTCTGATCATAGTCAGACCAACATTGCTACGACCCGTATTCGCACCGACAC”, the “relative integration efficiency (log2)” value is -1.79 ± 0.23.
The result for “ACATTTGTTGATACAACCATAAGTTGATATTTTCAACCATAAAGTGATATTTATCAGTGGGTATTTAACTATAACGCTCTGATCATAGTCAGACCAACATTGCTACGACCCGTATTCGCACCGACAC” reads -0.687 ± 0.11.
For the sequence “ACATTGGTCGATACAACCATAAAATGATAATTACACCCATAAATTCATAATTATCACACCCAATTTAACTATAACGCTCTGATCATAGTCAGACCAACATTGCTACGACCCGTATTCGCACCGACAC”, the “relative integration efficiency (log2)” value was -7.939 ± 0.019.
